# Columns and labels:
# [1] = target: NTSR1-EL (baculovirus construct with wild-type ICL3) (rat) (UniProt P20789)
# [2] = target: NTSR1-ELF (baculovirus construct with wild-type ICL3) (rat) (UniProt P20789)
# Gq protein, sequence (P50148 whole entry, looked up): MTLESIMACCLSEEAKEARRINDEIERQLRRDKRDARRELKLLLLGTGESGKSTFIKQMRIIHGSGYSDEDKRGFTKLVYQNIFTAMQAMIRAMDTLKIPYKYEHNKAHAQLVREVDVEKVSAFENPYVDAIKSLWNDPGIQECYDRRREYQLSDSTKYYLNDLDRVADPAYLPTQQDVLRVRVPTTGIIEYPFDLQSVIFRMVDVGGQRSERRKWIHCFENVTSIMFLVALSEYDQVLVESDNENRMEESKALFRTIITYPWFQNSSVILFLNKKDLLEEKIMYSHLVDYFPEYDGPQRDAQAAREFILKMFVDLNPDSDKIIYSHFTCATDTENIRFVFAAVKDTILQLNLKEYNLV
substance,measurement,setting,value
Gq protein (from UniProt P50148 1-359) (complex),"Fold-stimulation by NTS GTPγS: GDP/[35S]GTPγS exchange on Gq at saturating NTS compared to no ligand, urea-washed P2 insect cell membranes and purified Gq protein",[1],3.3 fold
same,"Fold-stimulation by NTS GTPγS: GDP/[35S]GTPγS exchange on Gq at saturating NTS compared to no ligand, urea-washed P2 insect cell membranes and purified Gq protein",[2],5.6 fold
neurotensin (NTS) (peptide),"EC50 (NTS) GTPγS, half maximal effective concentration of NTS on the exchange of GDP for GTPγS on Gq",[1],5.5 nM

# Source: publication PMC5141500
